B1: P/CAF bromodomain (residues 719-832 of human p300/CBP-associated factor), wild-type, Q92831 719-832 (protein)
chain: SKEPRDPDQLYSTLKSILQQVKSHQSAWPFMEPVKRTEAPGYYEVIRFPMDLKTMSERLKNRYYVSKKLFMADLQRVFTNCKEYNAAESEYYKCANILEKFFFSKIKEAGLIDK
B2: bromodomain of P/CAF (residues 719-832 of SEQ ID NO:2), Q92831 719-832 (protein)
chain: B1 chain

How the values were obtained:
[1] = molecular target: lysine-acetylated histone H4 peptide SGRGKGG-AcK-GLGK (Lys8 acetylated); experiment: NMR titration, amide chemical shift changes in 15N-HSQC spectra against ligand concentration
[2] = molecular target: histone H4 AcK16 peptide …-AcK-RHRK (SEQ ID NO:59); experiment: NMR 2D 1H-15N HSQC titration; 'binds weakly'
histone H4 AcK16 peptide …-AcK-RHRK (SEQ ID NO:59), sequence (peptide, as listed by the source): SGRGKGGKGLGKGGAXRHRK

Row | Binder | Kd [1] | Kd [2]
1 | B1 | 346 µM | 
2 | B2 |  | < 300 µM
